{"source": "paper PMC9790621", "key": {"purified protein [1]": {"substrate": "NC(=O)C1=CN([C@@H]2O[C@H](COP(=O)(O)OP(=O)(O)OC[C@H]3O[C@@H](n4cnc5c(N)ncnc54)[C@H](OP(=O)(O)O)[C@@H]3O)[C@@H](O)[C@H]2O)C=CC1", "assay": "purified protein", "settings": "pH 7.8; 25.0 °C"}, "purified protein [2]": {"substrate": "Nc1nc2c(ncn2[C@@H]2O[C@H](COP(=O)(O)O)[C@@H](O)[C@H]2O)c(=O)[nH]1", "assay": "purified protein", "settings": "pH 7.8; 25.0 °C"}}, "data": [{"protein": "Mtb GMPR (Mtb GuaB1) (Mycobacterium tuberculosis H37Rv) (protein) MRFLDGHPPGYDLTYNDVFIVPNRSEVASRFDVDLSTADGSGTTIPVVVANMTAVAGRRMAETVARRGGIVILPQDLPIPAVKQTVAFVKSRDLVLDTPVTLAPDDSVSDAMALIHKRAHGVAVVILEGRPIGLVRESSCLGVDRFTRVRDIAVTDYVTAPAGTEPRKIFDLLEHAPVDVAVLTDADGTLAGVLSRTGAIRAGIYTPATDSAGRLRIGAAVGINGDVGAKARALAEAGVDVLVIDTAHGHQVKTLDAIKAVSALDLGLPLAAGNVVSAEGTRDLLKAGANVVKVGVGPGAMCTTRMMTGVGRPQFSAVLECASAARQLGGHIWADGGIRHPRDVALALAAGASNVMIGSWFAGTYESPGDLMRDRDDQPYKESYGMASKRAVVARTGADNPFDRARKALFEEGISTSRMGLDPDRGGVEDLIDHITSGVRSTCTYVGASNLAELHERAVVGVQSGAGFAEGHPLPAGW", "values": [{"measurement": "K0.5", "setting": "purified protein [1]", "value": "63 ± 7", "unit": "µM"}, {"measurement": "K0.5", "setting": "purified protein [2]", "value": "10.5 ± 1.17", "unit": "µM"}]}]}
